{"source": "patent US20210063414A1", "about": "“METHODS FOR PREVENTING AND/OR TREATING BONE LOSS CONDITIONS BY MODULATING IRISIN” (Dana-Farber Cancer Institute, Inc., priority 2018, published 2021)", "key": {"[1]": {"target": "T1, MLO-Y4 cell surface proteins (Mus musculus, UniProt P62960)", "T1 construct": "endogenous in cells; host or cells: MLO-Y4", "T1 sequence (P62960 whole entry, the tested form may be a part)": "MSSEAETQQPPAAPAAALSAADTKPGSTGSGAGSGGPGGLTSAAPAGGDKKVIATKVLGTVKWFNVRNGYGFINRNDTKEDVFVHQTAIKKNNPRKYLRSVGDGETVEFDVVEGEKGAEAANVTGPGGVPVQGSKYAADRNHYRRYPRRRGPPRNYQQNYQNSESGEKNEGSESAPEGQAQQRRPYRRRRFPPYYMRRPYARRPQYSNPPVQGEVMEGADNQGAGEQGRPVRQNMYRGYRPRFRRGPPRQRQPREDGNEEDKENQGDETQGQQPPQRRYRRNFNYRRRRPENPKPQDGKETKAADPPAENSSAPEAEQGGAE", "experiment": "Crosslinking/co-immunoprecipitation/mass spectrometry (TMT quantitative proteomics) to identify irisin receptors", "type": "binding", "conditions": "co-precipitated protein Ybx1 (YBOX1_MOUSE)", "outline": "(§1)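 Relative protein abundance came from 6-plex TMT MS3 quantitation on an Orbitrap Fusion Lumos, after in-gel trypsin digestion of Coomassie-stained SDS-PAGE lanes. Input was a Ni-NTA pulldown (250 mM imidazole elution) of lysates from murine MLO-Y4 cells. These cells were treated on ice with His-tagged irisin or adipsin (10 nM, 20 min) in serum-free medium, then crosslinked with 1.5 mM DTSSP for 30 min.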"}, "[2]": {"target": "T2, MLO-Y4 cell surface proteins (Mus musculus, UniProt Q8VHN7)", "T2 construct": "endogenous in cells; host or cells: MLO-Y4", "experiment": "Crosslinking/co-immunoprecipitation/mass spectrometry (TMT quantitative proteomics) to identify irisin receptors", "type": "binding", "conditions": "co-precipitated protein Gpr98 (GPR98_MOUSE)", "outline": "as §1"}}}
{"substance": "adipsin", "values": [{"measurement": "TMT signal-to-noise ratio", "setting": "[1]", "value": 219.172}, {"measurement": "TMT signal-to-noise ratio", "setting": "[2]", "value": 618.49}]}
